Laboratory results: patent US20220056094A1 (JIANGSU HENGRUI MEDICINE, published 2022)
Where a chain is given by its changes, count along the chain named. Names may count otherwise. Where two headings read alike, the source gives them in different places. Values belong to the binder of their own block, whether it stands above or below them.

Key:
[1] = molecular target: T1, IL-2Rβ/γ-Fc heterodimer (IL-2Rβ-Fc-hole with IL-2Rγ-Fc-knob); experiment: SPR (Biacore), IL-2Rβ/γ-Fc captured on Protein A chip, 1:1 model
T1 construct: Co-expressed in HEK293 cells and purified with Protein A and Superdex 200
Experimental: (§1) The Protein A sensor chip (GE, Cat #29127556) of the Biacore instrument (Biacore T200, GE) was used to capture IL-2Rβ/γ-Fc, wherein IL-2Rβ/γ-Fc was diluted with 1×HBS-EP to 1 μg/mL, and flowed at a flow rate of 10 μL/min for 30 seconds. […] The Biacore instrument (Biacore X100, GE) was used to detect the reaction in real time, to obtain association and dissociation curves. After each cycle of dissociation was completed, the chip was washed and regenerated with 10 mM Gly-HCl pH 1.5.
Target sequence in this assay (chain, as listed by the source limits assumed, chain 1 of 2): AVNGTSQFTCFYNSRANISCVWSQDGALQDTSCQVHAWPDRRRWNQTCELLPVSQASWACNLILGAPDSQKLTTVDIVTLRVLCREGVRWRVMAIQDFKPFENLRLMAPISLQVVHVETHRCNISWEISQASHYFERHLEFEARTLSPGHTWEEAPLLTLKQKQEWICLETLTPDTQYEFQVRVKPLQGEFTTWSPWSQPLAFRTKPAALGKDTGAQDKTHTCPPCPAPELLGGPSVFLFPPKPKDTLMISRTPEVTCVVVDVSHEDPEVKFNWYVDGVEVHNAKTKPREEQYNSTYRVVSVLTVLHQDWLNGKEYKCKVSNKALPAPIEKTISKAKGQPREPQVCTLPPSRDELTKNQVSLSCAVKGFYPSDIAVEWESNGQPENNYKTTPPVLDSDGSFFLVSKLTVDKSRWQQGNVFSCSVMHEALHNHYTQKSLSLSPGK
Target sequence in this assay (chain, as listed by the source limits assumed, chain 2 of 2): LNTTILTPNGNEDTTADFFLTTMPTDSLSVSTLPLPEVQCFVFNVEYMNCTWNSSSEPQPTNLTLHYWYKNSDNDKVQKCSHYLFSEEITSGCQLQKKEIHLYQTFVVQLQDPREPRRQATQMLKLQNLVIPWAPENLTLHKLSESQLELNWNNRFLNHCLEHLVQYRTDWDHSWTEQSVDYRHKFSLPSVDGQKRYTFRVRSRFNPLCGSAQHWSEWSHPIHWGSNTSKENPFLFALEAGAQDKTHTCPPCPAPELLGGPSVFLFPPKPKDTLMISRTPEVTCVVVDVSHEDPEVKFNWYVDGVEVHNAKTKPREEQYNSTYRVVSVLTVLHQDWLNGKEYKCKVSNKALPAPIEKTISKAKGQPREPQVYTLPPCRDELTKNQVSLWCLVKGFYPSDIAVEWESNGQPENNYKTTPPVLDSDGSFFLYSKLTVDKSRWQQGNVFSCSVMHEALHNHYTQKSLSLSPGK

[2] = molecular target: T2, his-tagged human IL-2Rα recombinant protein (SinoBiological, Cat #10165-H08H) (human, UniProt P01589 22-213); experiment: ELISA, his-tagged IL-2Rα coated, HRP anti-IL-2 polyclonal detection
T2 construct: Bought protein; also called IL-2Rα (His Tag)
T2 sequence: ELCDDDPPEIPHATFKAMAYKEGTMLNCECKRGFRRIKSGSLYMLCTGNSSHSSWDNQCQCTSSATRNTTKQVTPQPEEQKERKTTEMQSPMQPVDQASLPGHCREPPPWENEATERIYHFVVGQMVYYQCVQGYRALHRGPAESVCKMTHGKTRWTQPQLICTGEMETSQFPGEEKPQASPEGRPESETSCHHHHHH
Experimental: 96-well microtiter plate was coated with 2 μg/mL his-tagged IL-2Rα recombinant protein (SinoBiological, Cat #10165-H08H), and incubated overnight at 4° C. The plate was washed with washing solution for three times, 250 μl per well. For each time of washing, the plate was shaken for 10 seconds to ensure sufficient washing. 200 μl/well blocking solution was added and incubated at room temperature for 2 hours. The plate was washed with washing solution for three times, 250 μl per well. For each time of washing, the plate was shaken for 10 seconds to ensure sufficient washing. […] The plate was incubated for 1 hour at room temperature. The plate was washed with washing solution for three times, 250 μl per well. […] The plate was incubated for 1 hour at room temperature. The plate was washed with washing solution for three times, 250 μl per well. 100 μl TMB was added to each well, and the reaction was performed for 15 minutes in the dark. 50 μl of 0.16 M sulfuric acid was added to each well.

[3] = molecular target: T3, high-affinity receptor IL-2Rα/β/γ on CTLL2 cells (mouse-derived cell line) (mouse, UniProt P01590 22-268; P16297 27-539; P34902 23-369); experiment: cell-based or functional assay
T3 sequence (looked up) 1: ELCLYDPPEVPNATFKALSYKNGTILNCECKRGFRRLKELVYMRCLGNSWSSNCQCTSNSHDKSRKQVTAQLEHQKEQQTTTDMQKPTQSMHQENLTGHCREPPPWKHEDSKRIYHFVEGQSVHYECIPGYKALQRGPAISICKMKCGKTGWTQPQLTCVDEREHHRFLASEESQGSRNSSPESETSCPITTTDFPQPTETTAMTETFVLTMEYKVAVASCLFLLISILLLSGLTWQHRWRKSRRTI
T3 sequence (looked up) 2: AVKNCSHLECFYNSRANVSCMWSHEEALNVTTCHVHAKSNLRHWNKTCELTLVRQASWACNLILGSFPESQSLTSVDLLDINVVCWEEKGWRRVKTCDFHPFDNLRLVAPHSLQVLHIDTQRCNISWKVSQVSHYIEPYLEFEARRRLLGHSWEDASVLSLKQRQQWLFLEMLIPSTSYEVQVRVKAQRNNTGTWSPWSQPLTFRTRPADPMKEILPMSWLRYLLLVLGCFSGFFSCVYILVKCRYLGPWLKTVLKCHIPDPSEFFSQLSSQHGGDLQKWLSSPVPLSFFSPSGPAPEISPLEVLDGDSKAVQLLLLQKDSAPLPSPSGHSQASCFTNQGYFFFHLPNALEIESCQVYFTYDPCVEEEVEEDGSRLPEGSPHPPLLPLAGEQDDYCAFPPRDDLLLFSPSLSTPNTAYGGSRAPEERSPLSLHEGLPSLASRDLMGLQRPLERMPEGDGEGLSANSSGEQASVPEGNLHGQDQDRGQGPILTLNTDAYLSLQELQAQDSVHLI
T3 sequence (looked up) 3: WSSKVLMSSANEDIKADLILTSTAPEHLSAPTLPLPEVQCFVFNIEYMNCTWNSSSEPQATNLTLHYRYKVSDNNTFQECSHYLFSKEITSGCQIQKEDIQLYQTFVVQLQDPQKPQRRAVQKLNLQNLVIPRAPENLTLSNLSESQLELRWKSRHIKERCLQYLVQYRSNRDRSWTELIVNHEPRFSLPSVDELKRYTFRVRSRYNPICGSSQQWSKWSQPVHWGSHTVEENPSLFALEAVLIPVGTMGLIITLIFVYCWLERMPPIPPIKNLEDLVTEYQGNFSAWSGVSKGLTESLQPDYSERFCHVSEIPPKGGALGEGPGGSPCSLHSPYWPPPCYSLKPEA

[4] = molecular target: T2, his-tagged human IL-2Rα recombinant …; experiment: BLI (Octet RED96e), His-tagged IL-2Rα on HIS1K sensor; column printed as 'affinity (nM)'
[5] = molecular target: T4, IL-2 receptor IL-2Rα/β/γ on human peripheral blood Treg cells (human, UniProt P01589 22-272; P14784 27-551; P31785 23-369); experiment: cell-based or functional assay
T4 sequence (looked up) 1: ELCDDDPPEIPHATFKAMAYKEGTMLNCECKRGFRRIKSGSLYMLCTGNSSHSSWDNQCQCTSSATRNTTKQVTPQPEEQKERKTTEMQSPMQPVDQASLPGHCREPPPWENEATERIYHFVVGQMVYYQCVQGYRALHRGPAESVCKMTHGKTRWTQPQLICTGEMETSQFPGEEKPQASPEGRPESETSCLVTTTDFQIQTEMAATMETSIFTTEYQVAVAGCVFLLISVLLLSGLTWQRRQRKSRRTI
T4 sequence (looked up) 2: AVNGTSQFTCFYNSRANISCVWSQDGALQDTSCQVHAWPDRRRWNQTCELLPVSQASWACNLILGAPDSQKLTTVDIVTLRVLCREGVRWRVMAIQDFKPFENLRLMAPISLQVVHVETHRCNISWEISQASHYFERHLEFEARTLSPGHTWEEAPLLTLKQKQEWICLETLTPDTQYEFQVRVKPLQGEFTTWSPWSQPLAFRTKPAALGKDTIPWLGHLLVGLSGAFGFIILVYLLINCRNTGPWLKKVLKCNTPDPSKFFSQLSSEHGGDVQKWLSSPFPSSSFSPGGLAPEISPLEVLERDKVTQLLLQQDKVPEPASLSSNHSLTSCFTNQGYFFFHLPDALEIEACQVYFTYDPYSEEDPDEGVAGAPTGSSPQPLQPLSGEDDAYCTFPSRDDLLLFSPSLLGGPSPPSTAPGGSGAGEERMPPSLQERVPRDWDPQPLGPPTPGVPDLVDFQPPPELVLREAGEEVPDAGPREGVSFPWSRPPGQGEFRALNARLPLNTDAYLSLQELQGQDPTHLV
T4 sequence (looked up) 3: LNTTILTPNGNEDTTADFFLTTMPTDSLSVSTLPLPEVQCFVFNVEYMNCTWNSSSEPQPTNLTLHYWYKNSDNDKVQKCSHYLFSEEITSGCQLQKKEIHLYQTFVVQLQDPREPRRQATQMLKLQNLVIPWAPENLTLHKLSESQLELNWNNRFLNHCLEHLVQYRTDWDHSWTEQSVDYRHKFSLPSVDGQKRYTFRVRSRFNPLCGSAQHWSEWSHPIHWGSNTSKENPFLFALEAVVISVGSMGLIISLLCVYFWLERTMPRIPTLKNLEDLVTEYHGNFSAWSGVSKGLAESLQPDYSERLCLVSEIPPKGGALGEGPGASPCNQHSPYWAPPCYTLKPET

[6] = molecular target: T5, medium-affinity receptor IL-2Rβ/γ on human cells (Mo7e cell line; human CD8+T and NK cells) (human, UniProt P14784 27-551; P31785 23-369); experiment: cell-based or functional assay
T5 sequence (looked up) 1: T4 sequence (looked up) 2
T5 sequence (looked up) 2: T4 sequence (looked up) 3

[7] = molecular target: T1, IL-2Rβ/γ-Fc heterodimer (IL-2Rβ-Fc-hole …); experiment: SPR (Biacore), IL-2Rβ/γ-Fc captured on Protein A chip
Experimental: as §1

[8] = molecular target: T5, medium-affinity receptor IL-2Rβ/γ on …; experiment: cell-based or functional assay; remark: listed apart in the source
[9] = molecular target: T5, medium-affinity receptor IL-2Rβ/γ on …; experiment: cell-based or functional assay; remark: listed apart in the source
[10] = molecular target: T3, high-affinity receptor IL-2Rα/β/γ on …; experiment: cell-based or functional assay; remark: listed apart in the source
[11] = molecular target: T2, his-tagged human IL-2Rα recombinant …; experiment: BLI (Octet RED96e), His-tagged IL-2Rα on HIS1K sensor
Experimental: The HIS1K biosensor (Fortebio, 18-5120) was immersed into 200 μL buffer (PBS, pH 7.4, 0.02% tween-20, 0.1% BSA) for 10 minutes, for wetting treatment. Then, human IL-2Rα with His tag (SinoBiological, Cat #10165-H08H) was dissolved in PBS pH 7.4, 0.02% tween-20 and 0.1% BSA, and the sensor was placed in 200 μL of such solution. The sensor was placed in 200 μL buffer (PBS pH 7.4, 0.02% tween-20, 0.1% BSA) to wash off the excess IL-2Rα.

B1: IL-2-05 (G27C/F78C) (ligand)
chain: MAPTSSSTKKTQLQLEHLLLDLQMILNCINNYKNPKLTRMLTFKFYMPKKATELKHLQCLEEELKPLEEVLNLAQSKNCHLRPRDLISNINVIVLELKGSETTFMCEYADETATIVEFLNRWITFAQSIISTLT
notes: The entry already carries the mutations and C125A and begins with M. Made in E. coli
Kd [1]: 0.288 nM
koff [1]: 9.68e-05 s⁻¹
kon [1]: 336000 M⁻¹ s⁻¹
EC50 [2]: 0.6 nM
relative biological activity (CTLL2 cell proliferation) [3]: 229%

B2: IL-2-24 (N26Q/N29S/N88R) (ligand)
chain: B1 chain with N27Q, C28G, N30S, C79F, N89R
Kd [4]: 11.8 nM
EC50 (STAT5 phosphorylation in human Treg cells) [5]: 0.209 nM
relative biological activity (STAT5 phosphorylation in human Treg cells) [5]: 0.2%

Other lines, results leading:

EC50 (Mo7e cell proliferation) [6]: 13.2 nM
relative biological activity (Mo7e cell proliferation) [6]: 19%
Kd [7]: 0.86 nM
koff [7]: 0.00119 s⁻¹
kon [7]: 1.38e+06 M⁻¹ s⁻¹
EC50 (STAT5 phosphorylation in human CD8+T cells) [8]: 8.97 nM
relative activity (STAT5 phosphorylation in human CD8+T cells) [8]: 26%
EC50 (STAT5 phosphorylation in human NK cells) [9]: 2 nM
relative activity (STAT5 phosphorylation in human NK cells) [9]: 24%
EC50 (CTLL2 cell proliferation) [10]: 35.3 nM
relative biological activity (CTLL2 cell proliferation) [10]: 0.2%
EC50 (STAT5 phosphorylation in human Treg cells) [5]: 2.65 nM
relative biological activity (STAT5 phosphorylation in human Treg cells) [5]: 0.02%
binding result [11]: no binding (tested: 133.3 nM)
B3: PEGylated IL-2-10 (ligand)
chain: B1 chain with N27Q, C28G, N31S, F43A, L73G, C79F
modifications: mono-PEGylated with 20 kDa mPEG-butyraldehyde (sodium cyanoborohydride); site not stated
notes: also called PEG-IL-2-10

EC50 (Mo7e cell proliferation) [6]: 34.8 nM
relative biological activity (Mo7e cell proliferation) [6]: 7%
Kd [7]: 3.54 nM
koff [7]: 0.000549 s⁻¹
kon [7]: 155000 M⁻¹ s⁻¹
EC50 (CTLL2 cell proliferation) [10]: 39.2 nM
relative biological activity (CTLL2 cell proliferation) [10]: 0.1%
binding result [11]: no binding (tested: 133.3 nM)
B4: PEGylated IL-2-22 (ligand)
chain: B1 chain with N27Q, C28G, N30S, F43A, N72Q, L73G, C79F
modifications: mono-PEGylated with 20 kDa mPEG-butyraldehyde (sodium cyanoborohydride); site not stated
notes: also called PEG-IL-2-22

EC50 (Mo7e cell proliferation) [6]: 23.4 nM
relative biological activity (Mo7e cell proliferation) [6]: 10%
Kd [7]: 1.86 nM
koff [7]: 0.000649 s⁻¹
kon [7]: 350000 M⁻¹ s⁻¹
EC50 (STAT5 phosphorylation in human CD8+T cells) [8]: 14.4 nM
relative activity (STAT5 phosphorylation in human CD8+T cells) [8]: 16%
EC50 (STAT5 phosphorylation in human NK cells) [9]: 2.88 nM
relative activity (STAT5 phosphorylation in human NK cells) [9]: 17%
EC50 (STAT5 phosphorylation in human Treg cells) [5]: 4.24 nM
relative biological activity (STAT5 phosphorylation in human Treg cells) [5]: 0.01%
binding result [11]: no binding (tested: 133.3 nM)
B5: PEGylated IL-2-23 (ligand)
chain: MAPTSSSTKKTCLQLEHLLLDLQMILNGIQSMHIDATLYMPKKATELKHLQCLEEELKPLEEVLNLAQSKNFHLRPRDLISNINVIVLELKGSETTFMCEYADETATIVEFLNRWITFAQSIISTCT
modifications: mono-PEGylated with 20 kDa mPEG-butyraldehyde (sodium cyanoborohydride); site not stated
notes: also called PEG-IL-2-23
